Test results as given in PMC3925748.

Target: FUS (full-length recombinant protein; tag not told for these experiments) (UniProt P35637)
Experiment: cross-linking

stoichiometry N: < 5
Substance: FUS (full-length recombinant protein; tag not told for these experiments) (from UniProt P35637 1-526) (natural protein)
